Source: paper PMC7814660 (Nature, 2020)

Columns and labels:
cryo-EM structure [1] = target: the molecule itself; assay: cryo-EM structure
[2] = cryo-EM structure superimposition of subunits; details: glycan lost; control: wild type
[3] = whole-cell patch clamp, CBX-sensitive current density, +80 mV; details: glycan lost; control: wild type
cryo-EM structure [4] = target: the molecule itself; assay: cryo-EM structure; remark: listed apart in the source

B1: caspase 7-cleaved human Pannexin 1 (ΔCTT-hsPANX1) (domain or fragment, UniProt Q96RD7 1-379, looked up)
chain: MAIAQLATEYVFSDFLLKEPTEPKFKGLRLELAVDKMVTCIAVGLPLLLISLAFAQEISIGTQISCFSPSSFSWRQAAFVDSYCWAAVQQKNSLQSESGNLPLWLHKFFPYILLLFAILLYLPPLFWRFAAAPHICSDLKFIMEELDKVYNRAIKAAKSARDLDMRDGACSVPGVTENLGQSLWEVSESHFKYPIVEQYLKTKKNSNNLIIKYISCRLLTLIIILLACIYLGYYFSLSSLSDEFVCSIKSGILRNDSTVPDQFQCKLIAVGIFQLLSVINLVVYVLLAPVVVYTLFVPFRQKTDVLKVYEILPTFDVLHFKSEGYNDLSLYNLFLEENISEVKSYKCLKVLENIKSSGQGIDPMLLLTNLGMIKMDVVD
cryo-EM structure [1]
  binding result: binds

B2: Pannexin 1 (hsPANX1): N255A (protein)
parent chain: MAIAQLATEYVFSDFLLKEPTEPKFKGLRLELAVDKMVTCIAVGLPLLLISLAFAQEISIGTQISCFSPSSFSWRQAAFVDSYCWAAVQQKNSLQSESGNLPLWLHKFFPYILLLFAILLYLPPLFWRFAAAPHICSDLKFIMEELDKVYNRAIKAAKSARDLDMRDGACSVPGVTENLGQSLWEVSESHFKYPIVEQYLKTKKNSNNLIIKYISCRLLTLIIILLACIYLGYYFSLSSLSDEFVCSIKSGILRNDSTVPDQFQCKLIAVGIFQLLSVINLVVYVLLAPVVVYTLFVPFRQKTDVLKVYEILPTFDVLHFKSEGYNDLSLYNLFLEENISEVKSYKCLKVLENIKSSGQGIDPMLLLTNLGMIKMDVVDGKTPMSAEMREEQGNQTAELQGMNIDSETKANNGEKNARQRLLDSSC
[2]
  structure_or_conformation: changes
[3]
  other: channel current: changes

B3: wild type human Pannexin 1 (wt-hsPANX1) (natural protein, UniProt Q96RD7 1-426, looked up)
chain: MAIAQLATEYVFSDFLLKEPTEPKFKGLRLELAVDKMVTCIAVGLPLLLISLAFAQEISIGTQISCFSPSSFSWRQAAFVDSYCWAAVQQKNSLQSESGNLPLWLHKFFPYILLLFAILLYLPPLFWRFAAAPHICSDLKFIMEELDKVYNRAIKAAKSARDLDMRDGACSVPGVTENLGQSLWEVSESHFKYPIVEQYLKTKKNSNNLIIKYISCRLLTLIIILLACIYLGYYFSLSSLSDEFVCSIKSGILRNDSTVPDQFQCKLIAVGIFQLLSVINLVVYVLLAPVVVYTLFVPFRQKTDVLKVYEILPTFDVLHFKSEGYNDLSLYNLFLEENISEVKSYKCLKVLENIKSSGQGIDPMLLLTNLGMIKMDVVDGKTPMSAEMREEQGNQTAELQGMNIDSETKANNGEKNARQRLLDSSC
modifications: N-glycosylated at N255 (N-acetylglucosamine modelled)
cryo-EM structure [1]
  stoichiometry N: 7

B4: glycosylation-deficient mutant N255A of human Pannexin 1 (N255A-hsPANX1) (natural protein, UniProt Q96RD7 1-426, looked up)
chain: MAIAQLATEYVFSDFLLKEPTEPKFKGLRLELAVDKMVTCIAVGLPLLLISLAFAQEISIGTQISCFSPSSFSWRQAAFVDSYCWAAVQQKNSLQSESGNLPLWLHKFFPYILLLFAILLYLPPLFWRFAAAPHICSDLKFIMEELDKVYNRAIKAAKSARDLDMRDGACSVPGVTENLGQSLWEVSESHFKYPIVEQYLKTKKNSNNLIIKYISCRLLTLIIILLACIYLGYYFSLSSLSDEFVCSIKSGILRADSTVPDQFQCKLIAVGIFQLLSVINLVVYVLLAPVVVYTLFVPFRQKTDVLKVYEILPTFDVLHFKSEGYNDLSLYNLFLEENISEVKSYKCLKVLENIKSSGQGIDPMLLLTNLGMIKMDVVDGKTPMSAEMREEQGNQTAELQGMNIDSETKANNGEKNARQRLLDSSC
cryo-EM structure [4]
  ratio of gap junctions to hemichannels: ~0.2 gap junctions : hemichannels
